Reference: EP4269437A1
Several values for one entry are separate records, joined by “and”; a condition that tells them apart may be missing. Identical values can stand only once.

Experiments:
[1] = molecular target: PD-1 (UniProt Q15116); experiment: ELISA, TG1 supernatant on coated PD-1, anti-c-myc HRP
Target sequence in this assay (Q15116 25-170 limits assumed): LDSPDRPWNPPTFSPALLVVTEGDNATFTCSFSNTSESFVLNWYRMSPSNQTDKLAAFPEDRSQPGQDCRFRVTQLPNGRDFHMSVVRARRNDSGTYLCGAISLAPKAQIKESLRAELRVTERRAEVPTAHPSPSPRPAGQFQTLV

[2] = molecular target: PD-1 (UniProt Q15116); experiment: blocking ELISA, clone supernatant, competitor PD-L1.hFc detected with anti-human Fc HRP
Target sequence in this assay (Q15116 25-170 limits assumed): as above

[3] = molecular target: PD-1 (UniProt Q15116); experiment: ELISA on coated protein, anti-human Fc HRP
Target sequence in this assay (Q15116 25-167 limits assumed): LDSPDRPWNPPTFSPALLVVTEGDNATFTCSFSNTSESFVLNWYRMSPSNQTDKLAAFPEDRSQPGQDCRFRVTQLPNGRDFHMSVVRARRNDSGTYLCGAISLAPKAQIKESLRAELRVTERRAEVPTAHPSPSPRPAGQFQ

[4] = molecular target: cynomolgus monkey PD-1 protein (cynomolgus monkey) (UniProt B0LAJ3); experiment: ELISA on coated protein, anti-human Fc HRP
[5] = molecular target: PD-1 (CD28 family protein, ACROBiosystems) (UniProt Q15116); experiment: ELISA on coated protein, anti-human Fc HRP
Sequence of PD-1 (CD28 family protein, ACROBiosystems) (Q15116 25-167 limits assumed): as above

Sequence of cynomolgus monkey PD-1 protein (cynomolgus monkey) (B0LAJ3 entry or part of it limits assumed): as the sequence (Q15116 25-170 limits assumed) above, with D2E, P10A, V19L, T35A, Q75R, T144A counted along it

Row | Binder | OD450, clone binding with PD-1 [1] [OD450] | OD450, PD-L1 binding with PD-1 [2] [OD450] | ELISA (OD) [3] | ELISA (OD) [4] | ELISA (OD) [5]
1 | NB205 (VHH) VHH: EVQLVESGGGLVQVGDSLRLSCAASGRTFSSVPMGWFRQAPGNQREFVAAISKSGGSAGYADSVKDRSTISRDNAKNTIYLQMNSLKPEDTAVYYCAASSFDFCSTHGCYDYWGQGTQVTISS | 2.25 | 2.2 |  |  | 
2 | NB216 (VHH) VHH: QVQLVESGGGLVRAGDSLTLSCAASGRTFSSVPMGWFRQAPGNQREFVAAISKSGGSAGYADSVKDRSTISRDNAKNTIYLQMNSLKPEDTAVYYCAASSYDFCSTHGCYDYWGQGTQVTISS | 2.75 | 2.45 |  |  | 
3 | NB211 (VHH) VHH: EVQVVETGGGLAQAGGSLRLSCAASGRTFSGYTVGWYRQSPGKEREFVAAISYSGGSTDYADSVKGRFTISRDNANNTVYLQMGSLKAEDTAVYYCNRVIRGTRDPSIYYVMDYWGKGTLVTVSS | 2.71 | 2.21 |  |  | 
4 | NB220 (VHH) VHH: QVQLQESGGGLLQAGDSLRLSCIVSGRTFSSYAIGWFRQAPGKEREFVAGINWSGRSQYYSESVKDRFTVSIDNAKNTVYLQMNSLKPEDTAVYYCAAERHLGVPTVRDDEYDDWGQGTQVTVSS | 2.38 | 2.21 |  |  | 
5 | NB182 (Fc fusion, not shown: a dimerising Fc or GST) VHH: QVQLVESGGGLVQAGGSLRLSCAASGDTSFISAAGWYRQAPGKERELVAAITNTGITYYPDSVKGRFTISRDNAKNTVYLQMNNLKPEDTAVYYCNAGAPPPGGLGYDESDYWGQGTQVTVSS | 3.08 | 0.213 | 2.17 OD and 2.13 OD and 2.1 OD | 2.07 OD and 2.08 OD and 1.95 OD | 2.06 OD and 2.09 OD and 2.29 OD
6 | NB194 (Fc fusion, not shown: a dimerising Fc or GST) VHH: QVQLVETGGGLVRAGGSLRLSCTASGRPFSIYDMGWFRQAPDKERESVAVINLSRGDTYYADSVKGRFTISLDSAKNTVYLQMNSLKPEDTAVYSCGVDRRQYGLGIPPLADHWGQGTQVTVSS | 2.83 | 0.152 | 2.22 OD and 1.95 OD and 2.11 OD | 2.23 OD and 2.17 OD and 2.1 OD | 2.03 OD and 1.96 OD and 2.27 OD
7 | NB202 (VHH) VHH: EVQVVESGGGLVQAGGSLRLSCTASGDTRLASAMGWYRQAPGKERELVAAITNSGLTYYADSVEGRFTISRDSAKNTVYLQMNSLKPEDTAVYYCNAGAPPPGGLGYDESDYWGQGTQVTVSS | 3.04 | 0.723 |  |  | 
8 | NB209 (VHH) VHH: EVQVVESGGGLVQTGGSLRLSCAASGDTALFSAVGWYRQAPGKERELVAALTNTGITYYADSVEGRFTIFRDNAKNTVYLQMNSLKPEDTAVYYCNAGAPPPGGLGYDESDYWGQGTQVTVSS | 3.22 | 2.04 |  |  | 
9 | NB215 (VHH) VHH: EVQVVESGGGLVQAGDSLRLSCAASGGTISGYEMGWFRQAPGKEREFVAGISRNGRSTGYSDSAKDRFTISRDNAKNTVYLQMNSLKPEDTAVYYCAAGLKADYGDSYVDTSTRNYNYWGQGTQVTVSS | 3.29 | 1.27 |  |  | 
10 | NB218 (VHH) VHH: QLQLVESGGGLVQAGDSLRLSCAASGRTFSSIAMGWFRQAPGKEREFVAAISRSGGSAGYADSVKDRSTIVRDNTKNTVYLQMNSLKPEDTAVYFCAASDYDFCSTHGCYDYWGQGTQVTISS | 2.62 | 2.32 |  |  | 
